Laboratory results taken from publication PMC7530659, “Oxepinamide F biosynthesis involves enzymatic D-aminoacyl epimerization, 3H-oxepin formation, and hydroxylation induced double bond migration” (Nature Communications, 2020).

Key:
[1] = test system: T1, CC[C@H](C)[C@@H]1NC(=O)[C@@H](Cc2ccccc2)n2c1nc1c(c2=O)C=CC=CO1; experiment: purified protein; assay type: biochemical, Aspergillus ustus; settings: FAD; NADPH
T1 construct: recombinant N-terminally His6-tagged OpaC from cDNA, 457 amino acids, lacking residues 248 to 252 of KIA75456

[2] = substrate: CC[C@H](C)C1=C2N=C3OC=CC=C[C@]3(O)C(=O)N2[C@H](Cc2ccccc2)C(=O)N1; experiment: HPLC enzyme assay with purified OpaE, Michaelis-Menten kinetics (KM); D2O labeling by LC-MS; assay type: biochemical, Aspergillus ustus

With OpaC (Aspergillus ustus; DEL248-252) the Km [1] was 430 ± 40 µM.

B1: OpaE (Aspergillus ustus) (protein)
chain: MGPLRVFTDNKVKVMLLNPIGGAGFNDFVVETVLNHKDPSTHVTITSLANRIGGNQTLAYPSIRPLLYGEMIRVCLQARKENYDVLIINCFGDPMVDELQQIAGDDMVILGARQVAVQTASKISSKYAVLLPYDMKSSPDPLHQRVVADTRTAVAHPVVDMAFNDDLTPMDGESLGERLATQGKLAIKENGAEVLVLGCTAMVGCWQGLMRAVGVPVIDPTVAALRAAGKAGRLKRELVGGASTKRSGTFPTEKELKMIAESEPSYPFSGRIEI
notes: recombinant His6-tagged OpaE
B1 was tested, and the Km [2] was 1410 ± 50 µM.
